According to patent publication US20240084003A1 (SIMCERE ZAIMING PHARMACEUTICAL, published 2024):
Substitutions are numbered along the chain they refer to. Read-outs that look alike come from different tables or passages of the source.

What was measured:
[1] = molecular target: T1, murine CD22 protein (ACROBiosystems, SI2-M52Ha) (murine, UniProt P35329 22-708); experiment: ELISA, coated murine CD22, 100 nM Ab
T1 construct: extracellular domain; also called murine CD22-ECD; murine CD22-ECD-His
T1 sequence (looked up): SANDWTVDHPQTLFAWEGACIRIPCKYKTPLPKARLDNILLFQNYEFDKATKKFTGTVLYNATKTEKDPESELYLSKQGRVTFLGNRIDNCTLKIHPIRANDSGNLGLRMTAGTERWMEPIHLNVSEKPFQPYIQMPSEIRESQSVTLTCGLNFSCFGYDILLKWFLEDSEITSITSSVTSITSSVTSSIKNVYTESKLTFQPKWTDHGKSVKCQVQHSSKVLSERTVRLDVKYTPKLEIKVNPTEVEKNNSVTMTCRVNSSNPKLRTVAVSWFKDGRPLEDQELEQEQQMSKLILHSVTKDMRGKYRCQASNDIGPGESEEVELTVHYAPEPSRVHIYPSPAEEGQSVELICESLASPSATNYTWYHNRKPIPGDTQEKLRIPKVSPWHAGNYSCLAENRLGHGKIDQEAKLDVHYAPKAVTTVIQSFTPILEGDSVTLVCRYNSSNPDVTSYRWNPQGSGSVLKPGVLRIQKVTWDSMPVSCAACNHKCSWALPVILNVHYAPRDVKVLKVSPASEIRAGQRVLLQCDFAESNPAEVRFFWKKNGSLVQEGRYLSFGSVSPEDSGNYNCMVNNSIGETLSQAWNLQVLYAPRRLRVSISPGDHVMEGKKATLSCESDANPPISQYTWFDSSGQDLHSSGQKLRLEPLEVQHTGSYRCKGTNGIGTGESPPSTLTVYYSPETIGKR
In short: (§1)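 First, CD22 (2 μg/mL, PBS) was coated at 4° C overnight. Second, wells were blocked with PBS containing 2% BSA for 2 h at room temperature. Third, antibody and then HRP secondary were each incubated 2 h at 37° C. Finally, TMB colour was stopped with HCl.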

[2] = molecular target: T1, murine CD22 protein (ACROBiosystems, …); experiment: ELISA, coated murine CD22, 0.01 nM Ab
In short: as §1

[3] = molecular target: T1, murine CD22 protein (ACROBiosystems, …); experiment: ELISA, coated murine CD22, 0.00001 nM Ab
In short: as §1

[4] = molecular target: T1, murine CD22 protein (ACROBiosystems, …); experiment: ELISA, coated murine CD22, 0.1 nM Ab
In short: as §1

[5] = molecular target: T2, human CD22, endogenous on Raji cells (human, UniProt P20273 20-847); experiment: FACS, Raji cells
T2 construct: whole, on cells; Endogenous protein of the Raji cell line
T2 sequence (looked up): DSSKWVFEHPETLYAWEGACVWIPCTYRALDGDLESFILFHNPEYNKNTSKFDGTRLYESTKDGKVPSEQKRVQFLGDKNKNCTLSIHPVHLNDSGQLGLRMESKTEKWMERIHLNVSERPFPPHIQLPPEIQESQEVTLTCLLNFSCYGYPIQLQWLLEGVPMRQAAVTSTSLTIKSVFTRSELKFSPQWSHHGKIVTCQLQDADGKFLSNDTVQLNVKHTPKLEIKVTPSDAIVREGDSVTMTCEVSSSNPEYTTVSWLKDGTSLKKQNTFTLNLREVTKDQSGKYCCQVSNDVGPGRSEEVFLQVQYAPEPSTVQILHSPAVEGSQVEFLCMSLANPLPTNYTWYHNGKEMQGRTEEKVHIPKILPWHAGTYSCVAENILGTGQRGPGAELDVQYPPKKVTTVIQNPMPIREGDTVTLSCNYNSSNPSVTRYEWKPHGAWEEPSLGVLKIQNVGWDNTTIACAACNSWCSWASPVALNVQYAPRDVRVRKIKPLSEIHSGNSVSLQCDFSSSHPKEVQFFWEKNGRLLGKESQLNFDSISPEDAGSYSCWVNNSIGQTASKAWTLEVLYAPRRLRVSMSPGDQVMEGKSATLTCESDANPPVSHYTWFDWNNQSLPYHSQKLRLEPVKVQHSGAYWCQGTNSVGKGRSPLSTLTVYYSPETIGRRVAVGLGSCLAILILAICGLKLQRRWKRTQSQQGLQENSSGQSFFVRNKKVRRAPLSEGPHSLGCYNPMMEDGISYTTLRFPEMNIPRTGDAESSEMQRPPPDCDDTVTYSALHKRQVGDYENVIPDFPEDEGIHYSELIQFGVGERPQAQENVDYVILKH
Excerpt: (§2) The required cells were scale-up cultured in a T-75 cell culture flask to the logarithmic growth phase. For the adherent cell CHO-K1, the medium was aspirated, the cells were washed 2 times with PBS buffer, and then digested with trypsin. After the digestion was terminated, the cells were washed 2 times with PBS buffer. For suspension cell Raji, the medium supernatant was directly centrifuged and discarded, and the cell pellet was washed 2 times with PBS. After counting the cells in the previous step, the cell pellet was resuspended with [PBS+2% (w/w) BSA] blocking solution to 2×10⁶ cells/ml, and added to a 96-well FACS reaction plate at 50 μl/well, and then the chimeric antibody test sample was added at 50 μl/well, and incubated on ice for 2 hours. The mixture was centrifuged and washed 3 times with PBS buffer, Alexa Flour 488-labeled secondary antibody (purchased from Invitrogen, catalog number: A-11013) was added at 50 μl/well, and incubated on ice for 1 hour. The obtained mixture was centrifuged and washed 5 times with PBS, and FACS (FACS Canto™, purchased from BD Company) was used for detection and result analysis. Data analysis was performed by software (CellQuest) to obtain the mean fluorescence density (MFI)of the cells. And then software (GraphPad Prism8) was used for analysis, data fitting, and EC50 value calculation. […] The same method was used to detect the binding of the chimeric antibodies to endogenous CD22-negative cell MoLT4 cells (purchased from ATCC, CRL-1582) and CHO-K1 cells.

[6] = molecular target: T1, murine CD22 protein (ACROBiosystems, …); experiment: ELISA, coated murine CD22, 0.001 nM Ab
In short: as §1

[7] = molecular target: T1, murine CD22 protein (ACROBiosystems, …); experiment: ELISA, coated murine CD22, 0.0001 nM Ab
In short: as §1

[8] = molecular target: T3, human CD22, full length, on CHO-K1-human CD22 2C4 cells (human, UniProt P20273 20-847); experiment: FACS, CHO-K1-human CD22 2C4 cells
T3 construct: Full-length human CD22 (NCBI NP_001762.2) stably transfected into CHO-K1
T3 sequence: T2 sequence (looked up)
Excerpt: as §2

[9] = molecular target: T1, murine CD22 protein (ACROBiosystems, …); experiment: ELISA, coated murine CD22, 10 nM Ab
In short: as §1

[10] = molecular target: T2, human CD22, endogenous on Raji cells; experiment: FACS, Raji cells; remark: listed apart in the source
In short: (§3)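 Raji cells and CHO-K1 cells expressing human CD22 were blocked in PBS + 2% BSA at 2×10⁶ cells/ml and incubated with chimeric antibody for 2 h on ice. Bound antibody was detected with an Alexa Fluor 488 secondary for 1 h on ice and read by flow cytometry as MFI. EC50 came from curve fitting.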

[11] = molecular target: T3, human CD22, full length, on …; experiment: FACS, CHO-K1-human CD22 2C4 cells; remark: listed apart in the source
In short: as §3

B1: F2.70.2 human-murine chimeric antibody (antibody, human IgG1, lambda, V domains shown)
VH: EVQLVESGGGLVKPGGSLKLSCAASGFTFSDYGMNWFRQAPEKGLEWVAYISRGSHTIYYADTVKGRFTISRDNAKNTLFLQMTSLRSNDTAMYYCVRMAGYYAMDYWGQGTSVTVSS
VL: QLVLTQSSSASFSLGASAKLTCTLSSQHSSYIIEWYQQQPLKPPKYVMELKKDGSHSTGDGIPDRFSGSSSGADRYLSISNIQPEDEAIYICGVGDTIKEQFVYVFGGGTKVTVLG
notes: Chimeric, human IgG1 / lambda
Binder B1 has an OD450 [1] of 0.1 OD450, an OD450 [2] of 0.06 OD450 and an OD450 [3] of 0.06 OD450. The OD450 [4] was 0.06 OD450, the EC50 [5] was 0.35 nM and the “Maximum mean fluorescence intensity” value [5] was 16600 MFI. For the same binder, the OD450 [6] was 0.06 OD450, the OD450 [7] was 0.06 OD450 and the EC50 [8] was 0.76 nM. For the same binder, the “Maximum mean fluorescence intensity” value [8] was 39000 MFI and the OD450 [9] was 0.07 OD450.

B2: F2.180.16 human-murine chimeric antibody (antibody, human IgG1, lambda, V domains shown)
VH: EVKLVESGGGLVLPGGSLKISCAASGFTFSDYYMYWIRQTPDKRLEWVAYISNTGYSTFYPDSVKGRFTVSRDNAKNTLYLQMSRLQSEDTAMYYCARHGILYAMDYWGQGTSVTVSS
VL: B1 VL with L2P, H28Y, S30T, I32T, E34G, K52H, H56R, S57H, I89T, V103M
notes: Chimeric, human IgG1 / lambda
In the case of B2, the OD450 [1] is reported as 0.05 OD450, the OD450 [2] is reported as 0.05 OD450 and the OD450 [3] is reported as 0.06 OD450. For the same binder, the OD450 [4] was 0.05 OD450, the EC50 [5] was 0.88 nM and the “Maximum mean fluorescence intensity” value [5] was 15700 MFI. For the same binder, the OD450 [6] was 0.05 OD450, the OD450 [7] was 0.07 OD450 and the EC50 [8] was 1.63 nM. The “Maximum mean fluorescence intensity” value [8] was 34400 MFI and the OD450 [9] was 0.06 OD450.

B3: F2.173.9 human-murine chimeric antibody (antibody, human IgG1, lambda, V domains shown)
VH: EVQLVESGGDLVKPGESLKLSCEASGFTFSNYAMSWVRQTPDRRLEWVATISSIGSFTYYSDSVKGRFTISRDNVKSTLHLQMNNLKSGDTAIYFCARLGVYFDSWGQGTTLTVSS
VL: B1 VL with S30T, I32T, L41H, Y46F, L50I, S57Y, A88T, G95S, T97M, E100D
notes: Chimeric, human IgG1 / lambda
B3 showed an OD450 [1] of 0.09 OD450, an OD450 [2] of 0.05 OD450 and an OD450 [3] of 0.06 OD450. The OD450 [4] was 0.05 OD450, the EC50 [5] was 0.84 nM and the “Maximum mean fluorescence intensity” value [5] was 18900 MFI. It also gave an OD450 [6] of 0.05 OD450, an OD450 [7] of 0.05 OD450 and an EC50 [8] of 1.23 nM. The “Maximum mean fluorescence intensity” value [8] was 40300 MFI and the OD450 [9] was 0.06 OD450.

B4: F2.104.10 human-murine chimeric antibody (antibody, human IgG1, lambda, V domains shown)
VH: B1 VH with L11F, K76E, V114L
VL: B1 VL with L50V, P84S
notes: Chimeric, human IgG1 / lambda
In the case of B4, the OD450 [1] is reported as 0.07 OD450, the OD450 [2] is reported as 0.07 OD450 and the OD450 [3] is reported as 0.05 OD450. The OD450 [4] was 0.06 OD450, the EC50 [5] was 0.4 nM and the “Maximum mean fluorescence intensity” value [5] was 16300 MFI. It also gave an OD450 [6] of 0.06 OD450, an OD450 [7] of 0.06 OD450 and an EC50 [8] of 0.88 nM. For the same binder, the “Maximum mean fluorescence intensity” value [8] was 40600 MFI and the OD450 [9] was 0.07 OD450.

B5: HA22-hIgG1 (antibody, V domains shown)
VH: EVQLVESGGGLVKPGGSLKLSCAASGFAFSIYDMSWVRQTPEKCLEWVAYISSGGGTTYYPDTVKGRFTISRDNAKNTLYLQMSSLKSEDTAMYYCARHSGYGTHWGVLFAYWGQGTLVTVSA
VL: DIQMTQTTSSLSASLGDRVTISCRASQDISNYLNWYQQKPDGTVKLLIYYTSILHSGVPSRFSGSGSGTDYSLTISNLEQEDFATYFCQQGNTLPWTFGCGTKLEIKR
Work on B5 yielded an OD450 [1] of 0.1 OD450, an OD450 [2] of 0.06 OD450 and an OD450 [3] of 0.06 OD450. For the same binder, the OD450 [4] was 0.06 OD450, the EC50 [5] was 0.71 nM and the “Maximum mean fluorescence intensity” value [5] was 19700 MFI. It also gave an OD450 [6] of 0.05 OD450, an OD450 [7] of 0.06 OD450 and an EC50 [10] of 0.29 nM. For the same binder, the “Maximum mean fluorescence intensity” value [10] was 25000 MFI, the EC50 [8] was 1.1 nM and the “Maximum mean fluorescence intensity” value [8] was 43400 MFI. The EC50 [11] was 0.81 nM, the “Maximum mean fluorescence intensity” value [11] was 32700 MFI and the OD450 [9] was 0.07 OD450.

B6: F2.121.9 human-murine chimeric antibody (antibody, human IgG1, lambda, V domains shown)
VH: EVQLVESGGGLVKPGGSLKLSCAASGFTFSDYVMSWIRQTPEKRLEWVATISDAGSYTFYPDNLKGRFTISRDNAKNNLYLQMNHLTSEDTAFYYCAIIYFGNYGGYWGQGTLVTVSV
VL: QAVVTQESALTTSPGGTVVLTCRSNTGAVTTSNYANWVQEKPDHLFTGLIGGTSNRAPGVPVRFSGSLIGDKAALTITGAQTEDDAMYFCALWYSTHWVFGGGTKLTVLG
notes: Chimeric, human IgG1 / lambda
For B6, the OD450 [1] was 0.06 OD450, the OD450 [2] was 0.05 OD450 and the OD450 [3] was 0.06 OD450. For the same binder, the OD450 [4] was 0.05 OD450, the EC50 [5] was 0.86 nM and the “Maximum mean fluorescence intensity” value [5] was 18900 MFI. For the same binder, the OD450 [6] was 0.06 OD450, the OD450 [7] was 0.06 OD450 and the EC50 [8] was 1.09 nM. For the same binder, the “Maximum mean fluorescence intensity” value [8] was 39700 MFI and the OD450 [9] was 0.06 OD450.
